Target: spike protein of SARS-CoV (SARS-CoV, UniProt P59594 14-1255)
Assay: cell-based or functional assay

B1: 4-66 antibody (antibody, V domains shown)
VH: EVQLVESGGGLVQPGGSLRLSCAASGIIVSRNYMTWVRQAPGKGLEWVSVIYSGGTTYYADSVKGRFTTSRDDSKNTLYLQMNSLRGDDTAVYYCARDPPHRRGSYWGQGTLVTVSS
VL: DILMTQSPSSLSASVGDRVTITCQASQDINKYLNWYQQKPGKAPKLLIYDASNLETGVPSRFSGSGSGTDFSFTISSLQPEDVATYYCQQSDNLPPTFGQGTNVEIK
Question: For B1, which “IC50, neutralization” value is on record?
Answer: Its value is 0.55 µg/mL.

From US20260139035A1 (NATIONAL UNIVERSITY CORPORATION KUMAMOTO UNIVERSITY, published 2026)
